Data taken from patent US6602687B1, “DNA encoding human ciliary neurotrophic factor and method for producing the protein encoded thereby” (Regeneron Pharmaceuticals, Inc., priority 1989, dated 2003).

How the values were obtained:
[1] = system: hippocampal neurons; experiment: Glutamate-induced toxicity in hippocampal cultures (MTT assay); format: cell-based, rat; settings: in the presence of CNTF (10 ng/ml)
Description: FIG. 38. Protective effect of CNTF on glutamate-induced toxicity in hippocampal cultures. […] Glutamate at various concentations (100-1000 uM) was added for 15 minutes, after which the cells were cultured in the absence of glutamate or CNTF for 20 h. Survival of cells at the end of the culture period was assessed by MTT assay based on the conversion of MTT (3-(4,5-dimethylthiazol-2-yl)-2,5-diphenyl tetrazolium bromide) to a purple product by vital cells. MTT dye was added to a final concentration of 0.5 mg/ml. Dyes taken up by live cells were solubilized by the addition of 0.08N HCI in isopropranol 5 hours later, and O.D. (570-650 nm) was measured.
The effect of CNTF on GABAergic neurons was dependent on the density at which the cells were plated. […] This may be due to an elevated level of neurotrophic factors in high density cultures. […] We have assessed the neurotoxic effects of various concentrations of glutamate (10-1000 μM) by means of a calorimetric MTT assay, as shown in FIG. 38. At a concentration of 1 mM, glutamate reduced cell survival to approximately 10%. In the presence of CNTF ([…]), cell survival following exposure to glutamate was enhanced.

[2] = system: E18-19 rat hippocampal neurons; experiment: High affinity GABA uptake in hippocampal cultures; format: cell-based
Description: Hippocampi were dissected from E18-19 rat embryos of Sprague-Dawley rats, and collected in F10 medium. The tissues were minced, rinsed twice with F10 medium (Gibco) and trypsinized with 0.25% trypsin (Gibco) for 20 minutes at 37° C. Trypsin was inactivated by the addition of a serum-containing medium composed of minimal essential medium (MEM) supplemented with fetal calf serum (FCS, 10%), glutamine (2 mM), penicillin (25 U/ml) and streptomycin (25 ug/ml). Dissociated cells obtained by gentle trituration were collected and centrifuged at low speed (500 rpm) for 30 seconds. The centrifugation was repeated twice, and the cell pellets were then resuspended in serum-containing medium. The cells were then plated onto 6 mm wells or 35 mm dishes that were coated with polyornithine (10 ug/ml) and laminin (10 ug/ml). In most of the experiments, the cells were plated at a low density of approximately 71,000 cells/cm^2. Five to six hours following the plating of cells, medium was changed to a serum-free medium containing 1% N3 and penicillin-streptomycin (25 units/ml and 25 ug/ml, respectively), at which time CNTF was added. Medium was changed every three to four days, with re-addition of the factor.
To obtain neuron-enriched cultures, cytosine arabinoside (Ara-C, 0.3 uM) was added for a period of 24 hours. Under such condition, the hippocampal cultures contain approximately 5-10% glial cells, as assessed by GFAP immunohistochemistry.
Uptake of GABA into non-neuronal cells was inhibited by the additional of 2 mM B-alanine, whereas uptake specific for neurons is verified by inhibition with nipecotic acid at 1 mM.
The CNTF used in all assays was recombinant rat CNTF, expressed and purified as described in Example Section 12 supra.

[3] = system: Ventral spinal cord neurons; experiment: Neurofilament (NF) assay in ventral spinal cord neuron cultures; format: cell-based, rat; settings: CNTF 10 ng/ml, NGF 50 ng/ml at plating; day 7
Description: Sprague-Dawley rats (HSD or Zivic-Miller) were used for all experiments. Pregnant rats (E14) were sacrificed as described in 10.1.1.
Spinal cords were removed aseptically from rat embryos as described in 10.1.2. The cord tissues were minced into small pieces and incubated in 0.1% trypsin (GIBCO) and 0.01% deoxyribonuclease type 1 (Sigma) at 37° C. for 20 minutes. Trypsin solution was then removed, rinsed and replaced with medium consisting of 45% Eagle's minimum essential medium (MEM), 45% Ham's nutrient mixture F12 (F12), 5% fetal calf serum (GIBCO), 5% horse serum (GIBCO) glutamine (2 mM), penicillin G (0.5 U/ml), and streptomycin (0.5 ug/ml). […] Total cell number yielded was determined by hemocytometer counting in the presence of trypan blue. […]
After fixation of the cells in 4% paraformaldehyde at 4° C. for 2 hours, the cultures were then permeabilized and blocked according to the procedures described in Doherty et al. (1984, J. Neurochem. 42:1116-1122). Neurofilament protein was detected using a monoclonal antibody RT97 (Wood and Anderton, 1981, Biosci. Rep. 1:263-268) at a 1:1000 dilution. The reaction product was visualized using O-phenylenediamine (OPD) as a substrate and optical density was measured at 490 nm.

B1: CNTF: ciliary neurotrophic factor; recombinant rat CNTF in Sections 10, 15, 17, purified rat sciatic nerve CNTF in Section 11; see endpoint conditions (protein, UniProt P20294 1-200, looked up)
Ciliary neurotrophic factor: MAFAEQTPLTLHRRDLCSRSIWLARKIRSDLTALMESYVKHQGLNKNINLDSVDGVPVASTDRWSEMTEAERLQENLQAYRTFQGMLTKLLEDQRVHFTPTEGDFHQAIHTLMLQVSAFAYQLEELMVLLEQKIPENEADGMPATVGDGGLFEKKLWGLKVLQELSQWTVRSIHDLRVISSHQMGISALESHYGAKDKQM
With B1 as the molecule, how does the “cell survival following exposure to glutamate” value [1] read?
Its value is “enhanced”.

And the “increase in Gaba uptake at low plating density” value ([2]; 71,000 cells/cm2, CNTF 10 ng/ml, 8 days)?
The value was “approximately 2.6 fold”.

What about the “increase in Gaba uptake at higher plating density” value ([2]; 143,000 cells/cm2, CNTF 10 ng/ml) of the same molecule?
Its value is “failed to induce a significant increase”.

What about the “concentration of CNTF required for a maximal response in GABA uptake” value ([2]; AraC-treated neuron-enriched cultures) of the same molecule?
The value was 0.03 ng/mL.

What about the “increase in Gaba uptake, CNTF added on the third day and cells treated for 8 days” value ([2]; CNTF 10 ng/ml) of the same molecule?
The value was “failed to induce increase in Gaba uptake”.

What about the “CNTF-induced increase in GABA uptake, addition delayed by one day” value ([2]; CNTF 10 ng/ml, assayed 7 days later) of the same molecule?
The value was “lowered”.

What about the “CNTF-induced increase in GABA uptake, addition on the third day after plating” value ([2]; CNTF 10 ng/ml, uptake on the eighth day in culture) of the same molecule?
Its value is “no longer produced an increase in GABA uptake”.

And the “increase in Gaba uptake versus untreated controls in AraC-treated cultures” value ([2]; neuron-enriched cultures, cytosine arabinoside 0.3 uM for 24 h, 8 days)?
The value was 2.4 fold.

What about the “concentration of CNTF required for a maximal response in GABA uptake” value ([2]; neuron-glia mixed cultures (−AraC)) of the same molecule?
Its value is 0.1 ng/mL.

What about the “maximal increase in specific neuronal GABA uptake (dose response)” value ([2]; recombinant rat CNTF 0.1 ng/ml for 8 days) of the same molecule?
Its value is “approximately 3 fold”.

And the “maximal increase in specific neuronal GABA uptake versus untreated controls” value ([2]; recombinant rat CNTF 10 ng/ml, 8 days after addition, 71,000 cells/cm2)?
The value was “approximately 4 fold”.

What about the “concentration at which specific neuronal GABA uptake was increased” value ([2]; recombinant rat CNTF, 8 days) of the same molecule?
The value was 0.01 ng/mL.

And the “increase in NF content versus untreated controls” value [3]?
The value was 2.0 fold.
